Experimental data published in PMC8991199 (2022).

B1: S100A5 (natural protein)
chain: METPLEKALTTMVTTFHKYSGREGSKLTLSRKELKELIKKELCLGEMKESSIDDLMKSLDKNSDQEIDFKEYSVFLTMLCMAYNDFFLEDNK

What was measured:
[1] = target: fIF, fluorescently labelled H14 foldamer IF (β-peptidic hexamer: β3-amino acids with proteinogenic side chains (I, F) in positions 2 and 5, ACHC (trans-2-aminocyclohexancarboxylic acid) residues; 5(6)-carboxyfluorescein on the ε-amino group of …); assay: FP
[2] = target: fWL, fluorescently labelled H14 foldamer WL (β-peptidic hexamer: β3-amino acids with proteinogenic side chains (W, L) in positions 2 and 5, ACHC (trans-2-aminocyclohexancarboxylic acid) residues; 5(6)-carboxyfluorescein on the ε-amino group of …); assay: FP
S100A5 [3] = target: B1; assay: FP; competition against fIF
S100A5 [4] = target: B1; assay: FP; competition against fWL

Row | Kd [1] | Kd [2] | Kd (S100A5 [3]) | Kd (S100A5 [4]) | Binder
1 | 32 µM | 7.9 µM |  |  | B1
2 |  |  | 2400 nM | 4.9 µM | TRTKIDWNKILS [TRTK12 peptide]
